The values below come from US20200063132A1.

In this assay the target is human Mannose 6-Phosphate Receptor (M6PR, also known as IGF2R), endogenous on HUVEC and hCMEC/D3 cells (human) (UniProt P11717). As to the kind of experiment: cell-based or functional assay.
human Mannose 6-Phosphate Receptor (M6PR, also known as IGF2R), endogenous on HUVEC and hCMEC/D3 cells (human), sequence (P11717 41-2491): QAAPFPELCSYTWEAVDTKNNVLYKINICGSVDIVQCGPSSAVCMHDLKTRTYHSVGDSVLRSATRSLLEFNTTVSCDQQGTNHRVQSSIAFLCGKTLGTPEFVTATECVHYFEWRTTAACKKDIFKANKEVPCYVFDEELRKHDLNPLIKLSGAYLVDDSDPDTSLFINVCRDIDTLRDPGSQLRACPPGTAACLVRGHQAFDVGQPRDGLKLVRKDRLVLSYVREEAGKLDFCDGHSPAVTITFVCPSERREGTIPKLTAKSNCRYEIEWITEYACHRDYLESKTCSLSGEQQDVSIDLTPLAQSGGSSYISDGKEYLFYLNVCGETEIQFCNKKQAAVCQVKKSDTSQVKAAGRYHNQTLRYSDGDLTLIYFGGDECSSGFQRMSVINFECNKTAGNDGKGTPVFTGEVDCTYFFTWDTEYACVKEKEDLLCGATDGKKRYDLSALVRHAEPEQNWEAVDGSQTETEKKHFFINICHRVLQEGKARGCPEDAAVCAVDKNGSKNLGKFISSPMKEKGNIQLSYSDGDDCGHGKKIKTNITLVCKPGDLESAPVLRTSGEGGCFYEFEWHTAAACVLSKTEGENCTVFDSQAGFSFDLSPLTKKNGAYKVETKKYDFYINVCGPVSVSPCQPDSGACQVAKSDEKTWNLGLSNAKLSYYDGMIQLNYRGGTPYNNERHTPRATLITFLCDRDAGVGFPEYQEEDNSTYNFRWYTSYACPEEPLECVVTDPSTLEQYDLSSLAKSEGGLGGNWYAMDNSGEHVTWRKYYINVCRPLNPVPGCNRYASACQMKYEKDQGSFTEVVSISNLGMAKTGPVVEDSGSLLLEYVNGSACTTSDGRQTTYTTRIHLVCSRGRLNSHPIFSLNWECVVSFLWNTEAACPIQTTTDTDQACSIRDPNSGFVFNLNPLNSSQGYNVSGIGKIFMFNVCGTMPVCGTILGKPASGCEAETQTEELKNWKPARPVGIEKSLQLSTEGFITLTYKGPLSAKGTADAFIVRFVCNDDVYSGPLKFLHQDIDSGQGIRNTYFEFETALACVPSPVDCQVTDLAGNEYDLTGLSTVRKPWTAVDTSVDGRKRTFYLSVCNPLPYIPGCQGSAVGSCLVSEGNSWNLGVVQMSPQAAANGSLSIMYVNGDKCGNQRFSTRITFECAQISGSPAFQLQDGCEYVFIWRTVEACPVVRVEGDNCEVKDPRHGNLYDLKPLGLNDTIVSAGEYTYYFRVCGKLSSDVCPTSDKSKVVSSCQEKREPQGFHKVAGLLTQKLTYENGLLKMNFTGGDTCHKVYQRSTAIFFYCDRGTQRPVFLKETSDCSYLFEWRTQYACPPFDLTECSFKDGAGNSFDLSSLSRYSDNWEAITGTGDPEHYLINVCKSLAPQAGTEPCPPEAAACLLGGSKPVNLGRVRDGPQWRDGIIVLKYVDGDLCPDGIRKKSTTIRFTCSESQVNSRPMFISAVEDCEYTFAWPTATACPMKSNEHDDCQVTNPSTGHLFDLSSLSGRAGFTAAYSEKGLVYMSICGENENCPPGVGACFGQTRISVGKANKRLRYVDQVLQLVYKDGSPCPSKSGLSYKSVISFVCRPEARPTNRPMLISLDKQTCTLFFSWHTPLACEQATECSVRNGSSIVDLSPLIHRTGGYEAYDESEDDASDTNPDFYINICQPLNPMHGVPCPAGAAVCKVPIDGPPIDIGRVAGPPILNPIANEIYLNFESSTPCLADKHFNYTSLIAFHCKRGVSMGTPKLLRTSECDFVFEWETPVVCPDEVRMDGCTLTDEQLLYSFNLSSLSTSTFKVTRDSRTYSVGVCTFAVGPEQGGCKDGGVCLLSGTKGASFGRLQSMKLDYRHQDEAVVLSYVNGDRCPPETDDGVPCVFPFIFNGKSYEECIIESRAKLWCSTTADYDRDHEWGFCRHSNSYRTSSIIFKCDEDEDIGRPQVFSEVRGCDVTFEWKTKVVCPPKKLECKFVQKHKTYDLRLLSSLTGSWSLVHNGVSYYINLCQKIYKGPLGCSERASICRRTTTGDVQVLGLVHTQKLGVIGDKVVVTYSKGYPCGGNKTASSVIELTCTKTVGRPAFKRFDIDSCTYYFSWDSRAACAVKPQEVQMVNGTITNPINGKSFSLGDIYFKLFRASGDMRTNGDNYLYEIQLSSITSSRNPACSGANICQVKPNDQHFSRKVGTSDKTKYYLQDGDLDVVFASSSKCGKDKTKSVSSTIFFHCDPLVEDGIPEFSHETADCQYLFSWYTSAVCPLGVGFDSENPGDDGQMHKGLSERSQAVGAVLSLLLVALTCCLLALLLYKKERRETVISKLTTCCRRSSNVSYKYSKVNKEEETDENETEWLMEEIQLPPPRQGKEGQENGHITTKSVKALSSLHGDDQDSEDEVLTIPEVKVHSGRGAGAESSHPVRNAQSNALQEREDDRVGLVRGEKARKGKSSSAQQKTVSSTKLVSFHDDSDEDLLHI

In the case of “IDUA-myc fusion protein (human α-L-iduronidase with myc tag, from conditioned medium of HEK 293-based cells stably overexpressing human IDUA cDNA) (from UniProt P35475 28-653) (enzyme)”, the IC50 of the M6P inhibitor (mannose 6-phosphate, a small molecule) on uptake of IDUA-myc by HUVEC, 1 h, intracellular IDUA activity was determined as 348 µM and the IC50 of the M6P inhibitor (mannose 6-phosphate, a small molecule) on uptake of IDUA-myc by hCMEC/D3 cells, 1 h, intracellular IDUA activity turned out to be 57.2 µM.
